Experimental data: EP3088890B1 (Chugai Seiyaku Kabushiki Kaisha, dated 2020)

How the values were obtained:
[1] = target: T1, AW3, C-terminally His-tagged recombinant product of positions 1 to 218 of GPC3 (human, UniProt P51654 25-218); test: Western blot, pellets of CHO cells expressing the product
T1 construct: Expressed in CHO cells, cell pellets used in Western blot; The range is as printed and starts at position 1; not shown: C-terminal His tag

[2] = target: T2, GPC3 peptide 521-550 (SEQ ID NO: 27) (human); test: peptide ELISA, peptide on plate
T2 construct: Synthetic 30-residue peptide of GPC3
T2 peptide: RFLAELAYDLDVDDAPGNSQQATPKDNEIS

[3] = target: T3, GPC3 peptide 441-470 (SEQ ID NO: 23) (human); test: peptide ELISA, peptide on plate
T3 construct: Synthetic 30-residue peptide of GPC3
T3 peptide: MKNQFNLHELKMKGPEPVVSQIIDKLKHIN

[4] = target: T4, GPC3 peptide 501-530 (SEQ ID NO: 26) (human); test: peptide ELISA, peptide on plate
T4 construct: Synthetic 30-residue peptide of GPC3
T4 peptide: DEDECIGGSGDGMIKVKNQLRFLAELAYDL

[5] = target: T5, GPC3 peptide 201-230 (SEQ ID NO: 11) (human); test: peptide ELISA, peptide on plate
T5 construct: Synthetic 30-residue peptide of GPC3
T5 peptide: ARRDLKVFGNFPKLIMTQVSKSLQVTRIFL

[6] = target: T6, GPC3 peptide 61-90 (SEQ ID NO: 4) (human); test: peptide ELISA, peptide on plate
T6 construct: Synthetic 30-residue peptide of GPC3
T6 peptide: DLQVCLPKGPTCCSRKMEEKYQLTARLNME

[7] = target: T7, GPC3 peptide 361-390 (SEQ ID NO: 19) (human); test: peptide ELISA, peptide on plate
T7 construct: Synthetic 30-residue peptide of GPC3
T7 peptide: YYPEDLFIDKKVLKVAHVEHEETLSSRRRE

[8] = target: T8, GPC3 peptide 281-310 (SEQ ID NO: 15) (human); test: peptide ELISA, peptide on plate
T8 construct: Synthetic 30-residue peptide of GPC3
T8 peptide: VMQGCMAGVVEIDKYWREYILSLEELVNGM

[9] = target: T9, GPC3 peptide 341-370 (SEQ ID NO: 18) (human); test: peptide ELISA, peptide on plate
T9 construct: Synthetic 30-residue peptide of GPC3
T9 peptide: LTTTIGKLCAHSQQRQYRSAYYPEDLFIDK

[10] = target: T10, GPC3 peptide 321-350 (SEQ ID NO: 17) (human); test: peptide ELISA, peptide on plate
T10 construct: Synthetic 30-residue peptide of GPC3
T10 peptide: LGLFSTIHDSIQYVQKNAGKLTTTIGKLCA

[11] = target: T11, GPC3 peptide 181-210 (SEQ ID NO: 10) (human); test: peptide ELISA, peptide on plate
T11 construct: Synthetic 30-residue peptide of GPC3
T11 peptide: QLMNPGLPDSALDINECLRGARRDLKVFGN

[12] = target: T12, GPC3 peptide 461-490 (SEQ ID NO: 24) (human); test: peptide ELISA, peptide on plate
T12 construct: Synthetic 30-residue peptide of GPC3
T12 peptide: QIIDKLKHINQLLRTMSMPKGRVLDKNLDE

[13] = target: T13, GPC3 peptide 301-330 (SEQ ID NO: 16) (human); test: peptide ELISA, peptide on plate
T13 construct: Synthetic 30-residue peptide of GPC3
T13 peptide: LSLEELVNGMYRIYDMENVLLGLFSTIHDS

[14] = target: T14, GPC3 peptide 551-580 (SEQ ID NO: 29) (human); test: peptide ELISA, peptide on plate
T14 construct: Synthetic 30-residue peptide of GPC3
T14 peptide: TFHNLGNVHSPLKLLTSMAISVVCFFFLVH

[15] = target: T15, GPC3 peptide 401-430 (SEQ ID NO: 21) (human); test: peptide ELISA, peptide on plate
T15 construct: Synthetic 30-residue peptide of GPC3
T15 peptide: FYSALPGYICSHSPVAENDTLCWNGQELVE

[16] = target: T16, GPC3 peptide 81-110 (SEQ ID NO: 5) (human); test: peptide ELISA, peptide on plate
T16 construct: Synthetic 30-residue peptide of GPC3
T16 peptide: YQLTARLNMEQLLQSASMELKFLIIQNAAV

[17] = target: T17, GPC3 peptide 241-270 (SEQ ID NO: 13) (human); test: peptide ELISA, peptide on plate
T17 construct: Synthetic 30-residue peptide of GPC3
T17 peptide: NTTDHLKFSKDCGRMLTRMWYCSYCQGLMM

[18] = target: T18, GPC3 peptide 1-30 (SEQ ID NO: 1) (human); test: peptide ELISA, peptide on plate
T18 construct: Synthetic 30-residue peptide of GPC3
T18 peptide: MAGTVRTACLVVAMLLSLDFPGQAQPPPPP

[19] = target: T19, GPC3 peptide 221-250 (SEQ ID NO: 12) (human); test: peptide ELISA, peptide on plate
T19 construct: Synthetic 30-residue peptide of GPC3
T19 peptide: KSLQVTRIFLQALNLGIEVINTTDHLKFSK

[20] = target: T20, GPC3 peptide 21-50 (SEQ ID NO: 2) (human); test: peptide ELISA, peptide on plate
T20 construct: Synthetic 30-residue peptide of GPC3
T20 peptide: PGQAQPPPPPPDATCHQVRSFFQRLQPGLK

[21] = target: T21, GPC3 peptide 101-130 (SEQ ID NO: 6) (human); test: peptide ELISA, peptide on plate
T21 construct: Synthetic 30-residue peptide of GPC3
T21 peptide: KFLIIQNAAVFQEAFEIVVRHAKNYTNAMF

[22] = target: T22, GPC3 peptide 481-510 (SEQ ID NO: 25) (human); test: peptide ELISA, peptide on plate
T22 construct: Synthetic 30-residue peptide of GPC3
T22 peptide: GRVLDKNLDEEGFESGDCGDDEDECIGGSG

[23] = target: T23, GPC3 peptide 121-150 (SEQ ID NO: 7) (human); test: peptide ELISA, peptide on plate
T23 construct: Synthetic 30-residue peptide of GPC3
T23 peptide: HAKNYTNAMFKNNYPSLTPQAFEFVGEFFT

[24] = target: T24, GPC3 peptide 541-570 (SEQ ID NO: 28) (human); test: peptide ELISA, peptide on plate
T24 construct: Synthetic 30-residue peptide of GPC3
T24 peptide: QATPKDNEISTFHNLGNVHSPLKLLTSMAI

[25] = target: T25, GPC3 peptide 41-70 (SEQ ID NO: 3) (human); test: peptide ELISA, peptide on plate
T25 construct: Synthetic 30-residue peptide of GPC3
T25 peptide: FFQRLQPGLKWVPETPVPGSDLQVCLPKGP

[26] = target: T26, GPC3 peptide 261-290 (SEQ ID NO: 14) (human); test: peptide ELISA, peptide on plate
T26 construct: Synthetic 30-residue peptide of GPC3
T26 peptide: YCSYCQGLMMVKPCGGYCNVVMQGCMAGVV

[27] = target: T27, GPC3 peptide 161-190 (SEQ ID NO: 9) (human); test: peptide ELISA, peptide on plate
T27 construct: Synthetic 30-residue peptide of GPC3
T27 peptide: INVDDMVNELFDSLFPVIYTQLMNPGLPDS

[28] = target: T28, GPC3 peptide 141-170 (SEQ ID NO: 8) (human); test: peptide ELISA, peptide on plate
T28 construct: Synthetic 30-residue peptide of GPC3
T28 peptide: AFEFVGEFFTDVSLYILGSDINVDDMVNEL

[29] = target: T29, GPC3 peptide 421-450 (SEQ ID NO: 22) (human); test: peptide ELISA, peptide on plate
T29 construct: Synthetic 30-residue peptide of GPC3
T29 peptide: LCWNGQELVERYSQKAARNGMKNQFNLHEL

[30] = target: T30, GPC3 peptide 381-410 (SEQ ID NO: 20) (human); test: peptide ELISA, peptide on plate
T30 construct: Synthetic 30-residue peptide of GPC3
T30 peptide: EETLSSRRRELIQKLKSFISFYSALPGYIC

T1 sequence (P51654 25-218): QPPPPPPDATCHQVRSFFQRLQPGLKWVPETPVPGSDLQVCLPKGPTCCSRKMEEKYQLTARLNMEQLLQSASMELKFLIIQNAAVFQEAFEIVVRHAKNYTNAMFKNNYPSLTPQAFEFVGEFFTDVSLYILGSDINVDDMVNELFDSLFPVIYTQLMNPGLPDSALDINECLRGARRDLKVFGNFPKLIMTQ

- binding result [1]: no binding
- binding result [2]: no binding (tested: 2 µg/mL)
- binding result [3]: no binding (tested: 2 µg/mL)
- binding result [4]: no binding (tested: 2 µg/mL)
- binding result [5]: no binding (tested: 2 µg/mL)
- binding result [6]: no binding (tested: 2 µg/mL)
- binding result [7]: no binding (tested: 2 µg/mL)
- binding result [8]: no binding (tested: 2 µg/mL)
- binding result [9]: no binding (tested: 2 µg/mL)
- binding result [10]: no binding (tested: 2 µg/mL)
- binding result [11]: no binding (tested: 2 µg/mL)
- binding result [12]: no binding (tested: 2 µg/mL)
- binding result [13]: no binding (tested: 2 µg/mL)
- binding result [14]: no binding (tested: 2 µg/mL)
- binding result [15]: no binding (tested: 2 µg/mL)
- binding result [16]: no binding (tested: 2 µg/mL)
- binding result [17]: no binding (tested: 2 µg/mL)
- binding result [18]: no binding (tested: 2 µg/mL)
- binding result [19]: no binding (tested: 2 µg/mL)
- binding result [20]: no binding (tested: 2 µg/mL)
- binding result [21]: no binding (tested: 2 µg/mL)
- binding result [22]: no binding (tested: 2 µg/mL)
- binding result [23]: no binding (tested: 2 µg/mL)
- binding result [24]: no binding (tested: 2 µg/mL)
- binding result [25]: no binding (tested: 2 µg/mL)
- binding result [26]: no binding (tested: 2 µg/mL)
- binding result [27]: no binding (tested: 2 µg/mL)
- binding result [28]: no binding (tested: 2 µg/mL)
- binding result [29]: no binding (tested: 2 µg/mL)
- binding result [30]: no binding (tested: 2 µg/mL)
B1: GT114 antibody (antibody, IgG1, V domains shown)
VH: DVQLQESGPGLVKPSQSLSLTCTVTGYSITSDSAWNWIRQFPGNKLEWMAYIMYSGITSYNPSLKSRISITRDTAKNQFFLQLNSVTTEDSATYYCSRGYWYFDVWGAGTTVTVSS
VL: QIVLTQSPAIMSASLGEEITLTCSASSSVSYMHWYQQKSGTSPKLLIYSTSILASGVPSRFSGSGSGTFYSLTISSVEAEDAADYYCLQWITYRTFGGGTKLEIKR
